To fix the notation:
T1: recombinant mouse TIMP-3 (mouse, UniProt P39876 24-211)
T1 construct: also called MuTIMP-3
T1 sequence (looked up): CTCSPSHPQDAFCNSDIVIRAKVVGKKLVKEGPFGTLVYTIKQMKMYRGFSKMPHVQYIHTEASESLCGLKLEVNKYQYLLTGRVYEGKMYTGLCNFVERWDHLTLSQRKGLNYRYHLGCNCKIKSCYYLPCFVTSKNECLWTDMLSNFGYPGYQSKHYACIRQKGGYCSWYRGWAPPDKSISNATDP

T2: recombinant human TIMP-3 (human, UniProt P35625 24-211)
T2 sequence (looked up): T1 sequence (looked up) with S51T, E87D, H103Q, S183I

B1: LRP-1 peptide LA22 (peptide)
chain: not shown
notes: Tags implied (Ni-NTA, anti-HA detection), not described
B2: LRP-1 peptide LA21 (peptide)
chain: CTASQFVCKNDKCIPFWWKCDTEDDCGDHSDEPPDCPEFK
notes: as for B1
B3: LRP-1 peptide LA6 (peptide)
chain: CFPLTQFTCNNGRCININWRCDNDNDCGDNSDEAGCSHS
notes: as for B1
B4: LRP-1 peptide LA28 (peptide)
chain: not shown
notes: as for B1
B5: LRP-1 peptide LA7 (peptide)
chain: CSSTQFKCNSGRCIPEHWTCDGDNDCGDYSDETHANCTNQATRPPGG
notes: The end 1061 is inferred from the end of LA5-7; Tags implied, not described
B6: LRP-1 peptide LA4-5 (peptide)
chain: CPSDRFKCENNRCIPNRWLCDGDNDCGNSEDESNATCSARTCPPNQFSCASGRCIPISWTCDLDDDCGDRSDESASCAYPT
B7: LRP-1 peptide LA21-23 (peptide)
chain: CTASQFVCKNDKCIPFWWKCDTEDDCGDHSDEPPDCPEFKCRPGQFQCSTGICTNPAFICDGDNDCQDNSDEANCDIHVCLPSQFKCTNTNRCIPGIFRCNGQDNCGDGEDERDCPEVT
B8: LRP-1 peptide LA17 (peptide)
chain: CGPSSFSCPGTHVCVPERWLCDGDKDCADGADESIAAGCLYNST
notes: as for B1
B9: LRP-1 peptide LA26-28 (peptide)
chain: CEPYQFRCKNNRCVPGRWQCDYDNDCGDNSDEESCTPRPCSESEFSCANGRCIAGRWKCDGDHDCADGSDEKDCTPRCDMDQFQCKSGHCIPLRWRCDADADCMDGSDEEACGTGVRT
B10: LRP-1 peptide LA16 (peptide)
chain: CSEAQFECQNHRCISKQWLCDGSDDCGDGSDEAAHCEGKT
B11: LRP-1 peptide LA3 (peptide)
chain: not shown
B12: LRP-1 peptide LA27 (peptide)
chain: not shown
B13: LRP-1 peptide LA11-20 (peptide)
chain: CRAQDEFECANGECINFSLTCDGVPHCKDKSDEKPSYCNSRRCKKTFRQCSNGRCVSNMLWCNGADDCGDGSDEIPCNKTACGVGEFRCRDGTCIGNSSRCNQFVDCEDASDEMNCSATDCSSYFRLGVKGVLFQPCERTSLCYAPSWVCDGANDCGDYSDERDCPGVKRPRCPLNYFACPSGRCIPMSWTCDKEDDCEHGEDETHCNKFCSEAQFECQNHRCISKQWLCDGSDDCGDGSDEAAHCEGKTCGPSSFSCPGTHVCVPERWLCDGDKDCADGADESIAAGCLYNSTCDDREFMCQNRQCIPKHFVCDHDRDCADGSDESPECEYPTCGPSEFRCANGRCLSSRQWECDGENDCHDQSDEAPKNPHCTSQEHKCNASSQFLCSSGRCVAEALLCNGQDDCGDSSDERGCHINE
B14: LRP-1 peptide LA5 (peptide)
chain: not shown

Changes are numbered by the printed parent chain. Where “and” joins values, the source holds several entries; their conditions need not be identical. Identical values can stand only once.

One assay concerns the target T1, recombinant mouse TIMP-3. The assay can be described thus: direct ELISA, coated muTIMP-3. As to the method: (§1) After incubation, the coating solution is removed and replaced with 250 microL/well of blocking buffer (1% BSA, TBS [pH 7.5], 1 mM CaCl₂) and incubated with shaking for 1 hour at room temperature. The plates are then washed three times with 200 microL/well with wash buffer 1 (TBS [pH 7.5], 1 mM CaCl₂). The LRP-1 peptides are titrated in assay buffer (0.1% BSA, TBS [pH 7.5], 1 mM CaCl₂, 0.02% Tween-20) in a separate polypropylene non-treated round-bottom 96-well plate (BD Falcon™) starting at 1 microM concentration and then diluted serially 4-fold for 8-points, with the last point buffer only. Then 100 microL/well of the diluted LRP-1 peptide titration is added to the TIMP-3 coated plate and allowed to bind for 1.5 hour at room temperature with shaking. After incubation, the plate is washed three times with 200 microL/well of wash buffer 2 (TBS [pH 7.5], 1 mM CaCl₂, 0.02% Tween-20). […] The assay plate is then washed three times with 200 microL/well with wash buffer 2. The plate is developed by adding 100 microL/well of 1:1 mixture of TMB and H₂O₂ (Pierce, Fisher Thermo Scientific, Rockford Il.), the reaction is stopped by adding 100 microL/well 2NH₂SO₄ (VWR), and read on a SpectraMax microplate reader (Molecular Devices, Sunnyvale, Calif.) at OD450 nm using SOFTmax Pro software version 3.1.2. Data is analyzed using GraphPad Prism 4.01 software. Binding of LRP-1 peptides to TIMP-3 is expressed as binding EC50.
(In general: ELISA stands for enzyme-linked immunosorbent assay.)
B1: the EC50 was 394 nM and 478 nM.
Turning to B2, the concentration for a half-maximal effect (EC50) was determined as 206 nM.
B3: the EC50 was found to be 38 nM.

The next assay addresses T3, recombinant TIMP-3 (human or mouse; Table 2 does not say which).
T3 construct: The methods say 'human or mouse TIMP-3'
The assay can be described thus: binding ELISA, Assay 2.
With B1, the EC50 was 426 nM.
B2: the EC50 is 1020 nM.
Turning to B4, the 50% effective concentration (EC50) turned out to be 300 nM.
As to B5, the EC50 is approximately 2500 nM.
Still for that read-out and setting: as for B3, the figure is 1210 nM.

The target in another assay is T2, recombinant human TIMP-3. The assay can be described thus: cell-based or functional assay.
B6: the “% of the inhibitory activity of TIMP-3 + peptide compared to TIMP-3 alone, 80 nM” value (“% of the inhibitory activity … 80 nM” for short) came out at 101% and the “% of the inhibitory activity of TIMP-3 + peptide compared to TIMP-3 alone, 2000 nM” value (“% of the inhibitory activity … 2000 nM” for short) amounted to 104%.
CLPSQFKCTNTNRCIPGIFRCNGQDNCGDGEDERDCPEVT [LRP-1 peptide LA23]: the “% of the inhibitory activity of TIMP-3 + peptide compared to TIMP-3 alone, 16 nM” value (“% of the inhibitory activity … 16 nM” below) is 104%; the “% of the inhibitory activity … 80 nM” value was determined as 107%; the “% of the inhibitory activity … 2000 nM” value was determined as 84%.
Consider B7, for which the “% of the inhibitory activity … 16 nM” value turned out to be 97%; the “% of the inhibitory activity … 80 nM” value was 96%; the “% of the inhibitory activity of TIMP-3 + peptide compared to TIMP-3 alone, 400 nM” value (shortened to “% of the inhibitory activity … 400 nM”) was found to be 100%; the “% of the inhibitory activity … 2000 nM” value was determined as 107%.
With B8, the “% of the inhibitory activity … 80 nM” value worked out at 93%; the “% of the inhibitory activity … 400 nM” value turned out to be 77%; the “% of the inhibitory activity … 2000 nM” value is 77%.
Turning to B9, the “% of the inhibitory activity … 16 nM” value was determined as 100%; the “% of the inhibitory activity … 80 nM” value amounted to 100%; the “% of the inhibitory activity … 400 nM” value came to 104%.
Take B10: the “% of the inhibitory activity … 16 nM” value worked out at 105%; the “% of the inhibitory activity … 80 nM” value was 101%; the “% of the inhibitory activity … 400 nM” value was found to be 52%; the “% of the inhibitory activity … 2000 nM” value came to 89%.
As for B11, the “% of the inhibitory activity … 80 nM” value was 84%; the “% of the inhibitory activity … 400 nM” value was 80%; the “% of the inhibitory activity … 2000 nM” value amounted to 109%.

The target of the next assay is MMP-13 (UniProt P45452 20-471, limits assumed). Description: cell-based or functional assay.
For the molecule B12, the “Direct Inhibition of MMP13 (% decrease), 1000 nM” value was determined as 47%.
In the case of B1, the “Direct Inhibition of MMP13 (% decrease), 1000 nM” value was 59%.
As to B6, the “Direct Inhibition of MMP13 (% decrease), 1000 nM” value turned out to be 26%.
Take CLPSQFKCTNTNRCIPGIFRCNGQDNCGDGEDERDCPEVT [LRP-1 peptide LA23]: the “Direct Inhibition of MMP13 (% decrease), 1000 nM” value was 46%.
With B13, the “Direct Inhibition of MMP13 (% decrease), 1000 nM” value was 26%.
For the molecule B2, the “Direct Inhibition of MMP13 (% decrease), 1000 nM” value was -2%.
Regarding B4, the “Direct Inhibition of MMP13 (% decrease), 1000 nM” value came out at 32%.
On the same count and under the same terms, for B7 the value was 19%.
On the same count and under the same terms, for CNASSQFLCSSGRCVAEALLCNGQDDCGDSSDERGCHINE [LRP-1 peptide LA20] the value was 0%; for B8, 41%.
On the same count and under the same terms, as for B9, the figure is 53%.
With B14, the “Direct Inhibition of MMP13 (% decrease), 1000 nM” value was found to be 69%.
As to B3, the “Direct Inhibition of MMP13 (% decrease), 1000 nM” value worked out at 57%.
Same read-out and setting: for B10 the value was 20%.
With B11, the “Direct Inhibition of MMP13 (% decrease), 1000 nM” value stood at 7%.

The target of the next assay is T3, recombinant TIMP-3 (human or mouse; …). Description: AlphaScreen, biotinylated TIMP-3, Assay 1. As to the method: Peptides were also evaluated by AlphaScreen® (Amplified Luminescent Proximity Homogeneous Assay; PerkinElmer, Waltham, Mass.) a very sensitive non-radioactive homogeneous assay technology that allows the screening of a large range of biological interactions and activities, substantially according to the manufacturer's instructions. Briefly, all dilutions are made in AlphaScreen® Buffer: [40 mM HEPES pH 7.5, 100 mM NaCl, 1 mM CaCl2, 0.1% BSA, 0.05% Tween-20]. The LRP-1 peptides are titrated in a separate polypropylene 96-well plate (Falcon) starting at 4 microM concentration and then diluted serially 3-fold for 12-points, with the last point buffer only. First 2 microL/well of protein titration curve is added to white, small volume, 384-well assay plate (Greiner Bio-One, Stonehouse, UK) in duplicate. Next, 2 microL of biotinylated (AFS, in-house conjmicroGation) recombinant human or mouse TIMP-3, is added at 12 nM (or 3 nM final assay concentration) to the assay plate. Lastly, in subdued light 4 microL of a mixture of streptavidin donor beads, anti-mouse IgG acceptor beads (PerkinElmer) both diluted to 20 microG/mL (10 microG/mL final assay concentration) and 2 nM (1 nM final concentration) rat-anti-HA (clone3F10)-HRP (Roche Diagnostics) is added to the plates. Plates containing 8 microL final assay volme are covered with TopSeal A (to prevent evaporation), spun quickly at 1000 rpm, and incubated overnight (covered with foil to prevent light exposure) before reading on Fusion plate reader (PerkinElmer) using AlphaScreen® parameters (excitation 680 nm and emission 520-620 nm). Data is analyzed using GraphPad Prism 4.01 software. Binding to TIMP-3 is reported as total signal (cps).
As for B1, the “total signal (cps)” value was 2200 cps.
Take B2: the “total signal (cps)” value amounted to 2200 cps.
As for B4, the “total signal (cps)” value was determined as 2200 cps.
As to B8, the “total signal (cps)” value was found to be 2200 cps.
Turning to B5, the “total signal (cps)” value was 2200 cps.
Consider B3, for which the “total signal (cps)” value came out at 2200 cps.

The target of another assay is T2, recombinant human TIMP-3. The assay can be described thus: indirect ELISA, huTIMP-3 captured by anti-TIMP-3 clone 277128. As to the method:
Then 100 microL/well of the diluted LRP-1 peptide titration is added to the TIMP-3 coated plate and allowed to bind for 1.5 hour at room temperature with shaking. After incubation, the plate is washed three times with 200 microL/well of wash buffer 2 (TBS [pH 7.5], 1 mM CaCl₂, 0.02% Tween-20). […] The assay plate is then washed three times with 200 microL/well with wash buffer 2. The plate is developed by adding 100 microL/well of 1:1 mixture of TMB and H₂O₂ (Pierce, Fisher Thermo Scientific, Rockford Il.), the reaction is stopped by adding 100 microL/well 2NH₂SO₄ (VWR), and read on a SpectraMax microplate reader (Molecular Devices, Sunnyvale, Calif.) at OD450 nm using SOFTmax Pro software version 3.1.2. Data is analyzed using GraphPad Prism 4.01 software. Binding of LRP-1 peptides to TIMP-3 is expressed as binding EC50.
After incubation, the plate contents are discarded and 250 microL/well of blocking buffer (1% BSA, TBS [pH 7.5], 1 mM CaCl₂) is added to the plate which is incubated with shaking for 1 hour at room temperature. The plate is then washed three times with 200 microL/well with wash buffer 1 (TBS [pH 7.5], 1 mM CaCl₂) followed by the addition of 100 microL of 20 nM recombinant human TIMP-3. The plate is incubated at room temperature for 1 hour. The LRP-1 peptides are titrated as described previously, and 100 microL/well of the diluted LRP-1 peptide titration is added to the TIMP-3 coated plate and allowed to bind for 1.5 hour at room temperature with shaking. After incubation, the plate is washed and the ELISA performed substantially as described previously for the direct binding ELISA.
In the case of B1, the EC50 is 185 nM and 200 nM.
Take B2: the EC50 was found to be 313 nM.
Consider B4, for which the concentration giving a half-maximal response (EC50) was found to be 972 nM.
In the case of B3, the EC50 amounted to 9 nM.

A further assay concerns the target T2, recombinant human TIMP-3. Description: direct ELISA, coated huTIMP-3. The method, then: as §1
Regarding B1, the EC50 is 456 nM and 340 nM.
On the same count and under the same terms, as for B2, the figure is 303 nM; as for B8, 886 nM; as for B3, 95 nM.

As a reminder, the EC50 is the concentration that produces a half-maximal response.

These data come from patent publication US20120231013A1 (Amgen, published 2012).
